Where no end group is shown, it is not given here. Side-chain parts run from the residue outwards. silicon chip = not defined here

Consider two molecules from article PMC5787804 (2017).

The target of assay [1] is Orai1-L2 (aa 136–186, mutation C143G) (human, UniProt Q96D31 136-186, C143G, conjugated to amino-functionalized AFM cantilever tips via a flexible NHS-PEG18-acetal cross-linker). In words: AFM single-molecule force spectroscopy.
Assay [2] has as its target Orai3-L2 (aa 111–161, mutation C118G) (human, UniProt Q9BRQ5 111-161, C118G, conjugated to amino-functionalized AFM cantilever tips via a flexible NHS-PEG18-acetal cross-linker). Briefly: AFM single-molecule force spectroscopy.

Sequence of Orai1-L2 (aa 136–186, mutation C143G) (Q96D31 136-186 C143G): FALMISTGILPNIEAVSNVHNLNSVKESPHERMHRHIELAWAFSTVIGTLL

For LYLSRAKLKASSRC([NHS‑PEG27‑maleimide-silicon chip]) (reading uncertain) [Orai1-NT 79–91], the values for the koff in assay [1] and in assay [2] were 0.13 s⁻¹ and 0.09 s⁻¹, respectively.

B1: Orai1-NT 70–91 (peptide)
peptide: SMQALSWRKLYLSRAKLKASSRC
modifications: added C-terminal cysteine for site-specific coupling; immobilized on silicon chips via NHS-PEG27-maleimide linkers
In the case of B1, the koff was determined as 1.9 s⁻¹ in assay [1] and 0.23 s⁻¹ in assay [2].

In general, koff refers to the first-order rate constant of dissociation. A higher koff goes with fast dissociation.
